The record followed here is PMC10588359.

Where only a bound is given, the exact number is not on record here.

The target in assay [1] is CaMKK1_(67–480) D293A, unphosphorylated (human) (UniProt Q8N5S9). Description: AUC; sedimentation velocity of CaMKKs alone at two concentrations (CaMKK1 at 10 μM); 50 mM Tris–HCl pH 7.5, 150 mM NaCl, 1 mM TCEP; 20°C, 42,000 rpm; monomer to dimer.
The target of assay [2] is dansyl-labeled calmodulin (DANS-CaM), Ca2+-bound (rat) (UniProt P0DP29). The experiment in a line: fluorescence polarisation; 2 μM DANS-CaM titrated with CaMKK (30 μM and binary dilution series), 1 h incubation; 10 mM HEPES-NaOH pH 7.4, 150 mM NaCl, 1 mM CaCl2, 0.1% Tween 20, 0.1% BSA; one-site-binding model. On the technique in general: In fluorescence polarisation assays a small probe gives low polarisation when free and higher when bound to something large.

Assay [3] has the same target. The experiment in a line: fluorescence polarisation; as a1 but with 60 μM 14-3-3γ present: 2 μM DANS-CaM titrated with CaMKK (30 μM and binary dilution series), 1 h incubation; 10 mM HEPES-NaOH pH 7.4, 150 mM NaCl, 1 mM CaCl2, 0.1% Tween 20, 0.1% BSA; one-site-binding model.

“CaMKK1_(67–480) D293A, unphosphorylated (from UniProt Q8N5S9 67-480) (domain or fragment)”: the stoichiometry N (in general, a count of units in the complex or per binding partner) in assay [1] stood at 2.
Consider “pCaMKK2: CaMKK2(93-517) D330A phosphorylated by PKA at four sites (from UniProt Q96RR4 93-517) (domain or fragment)”, for which the figures for the Kd in assay [2] and in assay [3] were 3550 nM and more than 10800 nM, respectively.
For “CaMKK2(93-517) D330A, unphosphorylated (from UniProt Q96RR4 93-517) (domain or fragment)” the same measures were 560 nM and 510 nM.
